The text below walks through data of patent US20180036441A1 (Dana-Farber, published 2018).

The target in experiment [1] is T1, MUC1 on HCT116/MUC1 cells (UniProt P15941 24-1255, limits assumed).
T1 construct: whole, on cells; also called MUC1 overexpressed cell line
The experiment can be described thus: FACS titration, HCT116/MUC1 cells, antibody at 31.25 nM. As to the method:
(§1) To assess cell binding, 2×10⁵ HCT116/MUC1 cells per well were washed with PBS twice and incubated in 200 μl of serial dilutions of chimeric or humanized antibodies for 1 hour at room temperature. After washing 3 times with PBS, secondary antibody (2 μg/ml Alexa Flour®488 goat anti-human IgG) was added to cells and incubated for 30 minutes at room temperature. After washing with PBS, cells were analyzed by using FACSCalibur (BD Bioscience, San Jose, Calif.) and Flowjo software.

In a further experiment the target is T2, MUC1-SEA-His protein (UniProt P15941 1039-1148, limits assumed).
T2 construct: domain: SEA; Recombinant antigen used for ELISA coating and as Biacore analyte; also called MUC-SEA-His; antigen protein; not shown: His tag
T2 sequence (looked up): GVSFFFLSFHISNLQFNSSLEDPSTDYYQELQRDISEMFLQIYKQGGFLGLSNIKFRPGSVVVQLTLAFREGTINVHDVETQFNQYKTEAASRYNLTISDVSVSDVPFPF
Description: SPR Biacore T200, antibody captured, antigen as analyte. As to the method: Antibody affinity was determined using a Surface Plasmon Resonance (SPR) biosensor, Biacore T200 (GE Healthcare). Antibody was immobilized on the sensor chip through Fc capture method. Antigen protein was used as the analyte. The data of dissociation (kd) and association (ka) rate constants were obtained using Biacore T200 evaluation software. The apparent equilibrium dissociation constants (KD) were calculated from the ratio of kd over ka. For affinity ranking, twenty-five humanized antibodies plus chimericantibody were injected and captured on sensor chip individually. The antibodies were ranked based on their dissociation rates (kd).
For orientation: Surface plasmon resonance follows binding to a sensor surface in real time, without labels.

Experiment [2] deals with T1, MUC1 on HCT116/MUC1 cells. Description: FACS titration, HCT116/MUC1 cells, antibody at 250 nM. As to the method: as §1
For experiment [3], the target named is T1, MUC1 on HCT116/MUC1 cells. Description: FACS titration, HCT116/MUC1 cells, antibody at 125 nM. The procedure:
as §1

The target in experiment [4] is T1, MUC1 on HCT116/MUC1 cells. The experiment can be described thus: FACS titration on HCT116/MUC1 cells. The procedure:
as §1

Experiment [5] has as its target T1, MUC1 on HCT116/MUC1 cells. Description: FACS titration, HCT116/MUC1 cells, antibody at 0.488 nM. The procedure:
as §1

In experiment [6] the target is T1, MUC1 on HCT116/MUC1 cells. The experiment can be described thus: FACS titration, HCT116/MUC1 cells, antibody at 62.5 nM. The procedure: as §1
The target in experiment [7] is T1, MUC1 on HCT116/MUC1 cells. The experiment can be described thus: FACS titration, HCT116/MUC1 cells, antibody at 0.244 nM. The procedure: as §1
In experiment [8] the target is T1, MUC1 on HCT116/MUC1 cells. The experiment can be described thus: FACS titration, HCT116/MUC1 cells, antibody at 0.977 nM. As to the method:
as §1

The target of experiment [9] is T1, MUC1 on HCT116/MUC1 cells. Description: FACS titration, HCT116/MUC1 cells, antibody at 3.906 nM. The procedure:
as §1

For experiment [10], the target named is T1, MUC1 on HCT116/MUC1 cells. The experiment can be described thus: FACS titration, HCT116/MUC1 cells, antibody at 15.625 nM. As to the method:
as §1

Experiment [11] addresses T1, MUC1 on HCT116/MUC1 cells. Description: FACS titration, HCT116/MUC1 cells, antibody at 7.812 nM. As to the method: as §1
Experiment [12] addresses T1, MUC1 on HCT116/MUC1 cells. Description: FACS titration, HCT116/MUC1 cells, antibody at 1.953 nM. As to the method:
as §1

Experiment [13] concerns the target T1, MUC1 on HCT116/MUC1 cells. Description: FACS titration, HCT116/MUC1 cells, antibody at 500 nM. The procedure: as §1

T1 sequence (P15941 24-1255 limits assumed): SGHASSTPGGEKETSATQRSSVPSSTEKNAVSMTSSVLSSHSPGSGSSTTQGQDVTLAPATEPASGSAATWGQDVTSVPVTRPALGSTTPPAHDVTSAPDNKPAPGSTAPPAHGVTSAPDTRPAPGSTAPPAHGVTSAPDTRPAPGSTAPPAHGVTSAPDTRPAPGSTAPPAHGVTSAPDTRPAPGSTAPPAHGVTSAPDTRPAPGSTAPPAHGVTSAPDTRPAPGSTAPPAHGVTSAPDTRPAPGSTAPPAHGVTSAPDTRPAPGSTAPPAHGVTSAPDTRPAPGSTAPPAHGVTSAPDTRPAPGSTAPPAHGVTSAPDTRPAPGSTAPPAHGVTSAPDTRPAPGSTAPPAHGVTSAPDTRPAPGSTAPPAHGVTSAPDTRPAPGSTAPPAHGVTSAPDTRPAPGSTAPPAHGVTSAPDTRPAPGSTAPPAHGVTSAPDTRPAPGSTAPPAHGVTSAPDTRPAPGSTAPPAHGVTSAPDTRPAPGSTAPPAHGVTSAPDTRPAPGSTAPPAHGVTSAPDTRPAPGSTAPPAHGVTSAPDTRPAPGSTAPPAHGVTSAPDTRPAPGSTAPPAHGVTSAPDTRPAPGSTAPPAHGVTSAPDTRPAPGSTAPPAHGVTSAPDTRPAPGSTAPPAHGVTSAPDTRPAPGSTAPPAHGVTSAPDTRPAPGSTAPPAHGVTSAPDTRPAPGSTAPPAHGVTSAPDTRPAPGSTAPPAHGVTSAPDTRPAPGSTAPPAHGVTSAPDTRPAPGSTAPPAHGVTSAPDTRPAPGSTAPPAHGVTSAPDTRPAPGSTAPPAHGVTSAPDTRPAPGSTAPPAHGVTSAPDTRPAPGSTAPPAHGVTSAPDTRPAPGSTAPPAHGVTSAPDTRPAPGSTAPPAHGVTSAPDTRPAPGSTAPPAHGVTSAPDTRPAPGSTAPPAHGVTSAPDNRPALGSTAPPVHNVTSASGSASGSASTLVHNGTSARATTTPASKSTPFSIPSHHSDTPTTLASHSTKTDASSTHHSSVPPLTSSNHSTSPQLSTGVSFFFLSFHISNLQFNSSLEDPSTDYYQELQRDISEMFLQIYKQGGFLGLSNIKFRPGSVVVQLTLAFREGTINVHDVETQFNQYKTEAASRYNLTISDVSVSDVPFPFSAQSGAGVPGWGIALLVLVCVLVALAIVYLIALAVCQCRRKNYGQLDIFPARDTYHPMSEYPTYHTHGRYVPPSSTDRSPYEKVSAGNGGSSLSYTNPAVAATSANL

B1: VH3 + VL3 (antibody, V domains shown)
VH: QVQLVQSGAEVKKPGASVKVSCKASGYAFSNFWMNWVRQAPGQGLEWMGQIYPGDGDTNYNGKFKGRVTMTRDTSISTAYMELSRLRSDDTAVYYCARSYYRSAWFAYWGQGTLVTVSS
VL: EIVLTQSPATLSLSPGERATLSCRASQSIGTSIHWYQQKPGQAPRLLIYYASESISGIPARFSGSGSGTDFTLTISSLEPEDFAVYYCQQSNNWPLTFGGGTKVEIK
notes: Humanized IgG expressed in HEK293; also called humanized antibody VH3+VL3
Consider B1, for which the geometric mean in experiment [1] amounted to 77.2; in [2], 154; in experiment [3] it was 151; in experiment [5], 2.65; in experiment [6] it was 134; in experiment [7] it was 2.61. In addition, the geometric mean in experiment [8] worked out at 2.95; in [9], 5.77; in experiment [10], 27.3; in experiment [11] it was 7.91; in [12] it was 3.64; in [13], 148. For the same molecule, the koff (commonly the rate constant with which the complex falls apart) with MUC1-SEA-His protein stood at 0.0152 s⁻¹. It took 30.9 nM to reach a half-maximal effect in [4] (EC50).

B2: VH5 + VL1 (antibody, V domains shown)
VH: EVQLVQSGAEVKKPGESLKISCKGSGYAFSNFWMNWVRQMPGKGLEWMGQIYPGDGDTNYNGKFKGQVTISADKSISTAYLQWSSLKASDTAMYYCARSYYRSAWFAYWGQGTLVTVSL
VL: EIVLTQSPDFQSVTPKEKVTITCRASQSIGTSIHWYQQKPDQSPKLLIKYASESISGVPSRFSGSGSGTDFTLTINSLEAEDAATYYCQQSNNWPLTFGQGTKVEIK
notes: Humanized IgG expressed in HEK293; also called humanized antibody VH5+VL1
Take B2: the geometric mean in experiment [1] amounted to 219; in experiment [2], 327; in [3], 326; in experiment [5] it was 2.93; in experiment [6] it was 291; in experiment [7] it was 2.67. The geometric mean in experiment [8] worked out at 4.25; in experiment [9], 20; in experiment [10] it was 91.2; in experiment [11], 29.7; in experiment [12] it was 7.02; in experiment [13], 316. For the same molecule, the koff in the experiment with MUC1-SEA-His protein was found to be 0.00192 s⁻¹. The half-maximal effective concentration (EC50) (as a rule, the concentration that produces a half-maximal response) in experiment [4] was found to be 23.6 nM.
